Reference: US20170275344A1, “POLYPEPTIDES AND USES THEREOF AS A DRUG FOR TREATMENT OF AUTOIMMUNE DISORDERS” (Compugen Ltd., priority 2014, published 2017)

Experiments:
Type in all cases: in vivo, mouse
[1] = test system: SJL/J mice; assay: Adoptive transfer R-EAE, clinical score
Experimental: Female SJL/J mice were primed with 50 ug of PLP139-151/CFA according to the standard laboratory protocol on day 0. On day 8 post disease induction, the inguinal lymph nodes were collected and the total lymph node cells were re-activated in culture in the presence of PLP139-151 for 3 days. At the end of culture, cells were collected and transferred into naive recipient SJL/J mice.
a. Mice were shaved (about a lin.xlin, square on the back between the hind flanks) and injected with CFA/PLP139-151 emulsion at 100 μl per mouse s.c., divided between three spots on the back and flanks. Peptide and final dose given per mouse: 50 μg of PLP139-151 peptide on day 0.
b. On day 8 post priming with PLP139-151/CFA, the draining inguinal lymph nodes were collected, and single cell suspensions were prepared. Total lymph node cells were cultured at a density of 8×10^6 cells per ml in the HL-1 medium plus PLP139-151 peptide (20 μg/ml) in T75 flasks.
c. After 3 days of culture, the PLP139-151 reactivated cells were collected and counted using an hemacytometer. The number of total viable cells and the number of blast cells was determined. The percentage of blast cells expected following this protocol is 20-30% of the total viable cells.
d. Unless otherwise specified, 3×10^6 cells were transferred to each recipient mouse by intravenous injection.
f. Mice were scored on the indicated days, on a 0-5 disease score scale per standard laboratory protocol: 0, no abnormality; 1, limp tail; 2, limp tail and hind limb weakness; 3, hind limb paralysis; 4, hind limb paralysis and forelimb weakness; and 5, moribund.

[2] = test system: SJL/J mice; assay: BBB breakdown and inflammation by fluorescence molecular tomography in adoptive transfer R-EAE; conditions: Day +30, treatment from onset of remission
Experimental: […] At the time of imaging mice were anesthetized by administration of sodium pentobarbital (50 mg/kg) and then imaged using the FMT 2500 fluorescence molecular tomography in vivo imaging system. The data is presented as pmol of CathepsinB or AngioSense present within the brain (B) or spinal cord (C).
Commercially available near infrared (NIR) imaging agents were used to perform tomographic imaging (PerkinElmer Inc., Boston, Mass.). […] For the in vivo imaging, mice were injected intravenously with 4 nmol of NIR fluorescent agent 24 hrs prior to imaging, and imaged following the last treatment with Control Ig or C1ORF32 ECD-Fc (SEQ ID NO: 42) (Day +30 post-PLP139-151 blast cell transfer). At the time of imaging, mice were anesthetized by administration of sodium pentobarbital (50 mg/kg) and then imaged using the FMT 2500 fluorescence molecular tomography in vivo imaging system (PerkinElmer Inc., Boston, Mass.). […] Appropriate optical filters allowed the collection of both fluorescence and excitation datasets, and the multiple source-detector fluorescence projections were normalized to the paired collection of laser excitation data. […] The total amount of fluorescence (in pmoles) in different organ sites was automatically calculated relative to internal standards generated with known concentrations of appropriate FR/NIR dyes. […]

[3] = test system: SJL/J mice; assay: T cell and Treg counts in spleen and CNS, day 44 of EAE with IL-10 or TGFb blockade (FACS)
Excerpt: On day 44 post disease induction, the rest of the mice were sacrificed and spleens and CNS were taken for cell counts and cell population analysis as described below.
2. The spleens and CNS were collected.
4. Experimental stains (CD45, CD3, CD4, CD25, FoxP3, Nrp-1, and Helios)
9. Gating scheme for flow: Singlets (FSC-A vs. FSC-H)->Cells (SSC-A vs. FSC-A)->Live (VID stain negative cells)->CD45hi->CD3/CD4+->CD25/FoxP3+->Helios/Nrp-1

B1: C1ORF32 ECD-Fc (SEQ ID NO:42): fusion protein of human C1ORF32 ECD fused to mouse immunoglobulin Fc (human-mouse fusion protein) (protein)
chain: LQVTVPDKKKVAMLFQPTVLRCHFSTSSHQPAVVQWKFKSYCQDRMGESLGMSSTRAQSLSKRNLEWDPYLDCLDSRRTVRVVASKQGSTVTLGDFYRGREITIVHDADLQIGKLMWGDSGLYYCIITTPDDLEGKNEDSVELLVLGRTGLLADLLPSFAVEIMGSENLYFQGSGEPRGPTIKPCPPCKCPAPNLLGGPSVFIFPPKIKDVLMISLSPIVTCVVVDVSEDDPDVQISWFVNNVEVHTAQTQTHREDYNSTLRVVSALPIQHQDWMSGKEFKCKVNNKDLPAPIERTISKPKGSVRAPQVYVLPPPEEEMTKKQVTLTCMVTDFMPEDIYVEWTNNGKTELNYKNTEPVLDSDGSYFMYSKLRVEKKNWVERNSYSCSVVHEGLHNHHTTKSFSRTPGK
modifications: Fusion protein human C1ORF32-ECD fused to mouse IgG2a Fc
clinical signs of the disease (mean clinical score) ([1]; 100 ug/mouse i.p. 3x/wk for 2 wks from onset of disease remission, two studies): robust inhibition of clinical signs of the disease | disease induction ([1]; study Cgen data, treatment from the time of cell transfer, 100 ug/dose i.p. 3x/wk for 2 wks): complete abolishment of disease induction | disease development ([1]; study MYC48 FACS, treatment from the time of cell transfer, 100 ug/dose i.p. 3x/wk for 2 wks): abolished disease development | monocyte/macrophage activity in the brain and spinal cord (lysosomal CathepsinB activity) [2]: reduced lysosomal CathepsinB activity; however this effect did not reach statistical significance | vascular leakage in the brain and spinal cord (AngioSense720 levels) ([2]; significant): decreased vascular leakage | NRP+/Helios+ Treg subpopulation in the spleen ([3]; administered concomitantly with anti-TGFβ): increase | Nrp+/HeliosLo Treg subpopulation in the spleen ([3]; alone or concomitantly with anti-TGFβ): trend of increase | T cell counts in the spleen (mainly CD4+) ([3]; day 44): increase | effects on CNS and spleen cell counts following concomitant neutralization of IL-10 or TGF-β ([3]; day 44): not observed | leukocytes and T cell counts in the CNS (CD45+, CD4+, and CD25+/FoxP3+) ([3]; day 44): pronounced decrease | Nrp-/HeliosLo Treg subpopulation in the spleen ([3]; treatment alone): upregulation
